Here are results for 21 molecules from patent publication US20090226415A1, “MODIFIED TRIDEGINS, PRODUCTION AND USE THEREOF AS TRANSGLUTAMINASE INHIBITORS” (priority 2001, published 2009).

The labels stand for the following.
T1: factor XIIIa (Homo sapiens, UniProt P00488)
T1 sequence (P00488 39-732 limits assumed): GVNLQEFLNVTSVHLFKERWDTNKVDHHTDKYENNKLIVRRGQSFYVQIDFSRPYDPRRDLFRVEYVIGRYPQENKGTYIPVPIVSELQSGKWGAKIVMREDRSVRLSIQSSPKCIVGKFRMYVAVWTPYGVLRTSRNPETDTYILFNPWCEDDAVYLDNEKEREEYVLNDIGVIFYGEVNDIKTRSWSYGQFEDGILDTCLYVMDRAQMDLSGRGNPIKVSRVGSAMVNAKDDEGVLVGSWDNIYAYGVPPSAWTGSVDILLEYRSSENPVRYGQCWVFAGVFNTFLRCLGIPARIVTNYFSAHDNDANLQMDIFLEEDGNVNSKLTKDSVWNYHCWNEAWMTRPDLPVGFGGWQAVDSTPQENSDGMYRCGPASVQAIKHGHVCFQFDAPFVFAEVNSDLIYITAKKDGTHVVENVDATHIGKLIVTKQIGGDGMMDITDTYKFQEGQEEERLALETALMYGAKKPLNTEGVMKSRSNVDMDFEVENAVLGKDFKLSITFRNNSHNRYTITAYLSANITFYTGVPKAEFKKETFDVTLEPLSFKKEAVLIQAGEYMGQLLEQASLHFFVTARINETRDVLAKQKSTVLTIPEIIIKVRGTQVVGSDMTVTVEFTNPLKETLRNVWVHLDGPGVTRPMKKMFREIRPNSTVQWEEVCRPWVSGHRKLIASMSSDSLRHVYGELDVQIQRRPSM

B1: recombinant tridegin polypeptide expressed in the yeast Pichia pastoris: tridegin polypeptide encoded by SEQ ID No. 90, secreted from Pichia pastoris; main product lacks the 11 C-terminal residues (protein)
chain: MRFPSIFTAVLFAASSALAAPVNTTTEDETAQIPAEAVIGYSDLEGDFDVAVLPFSNSTNNGLLFINTTIASIAAKEEGVSLEKRKLLPCKEWHQGIPNPRCWCGADLECAQDQYCAFIPQCRPRSELIKPMDDIYQRPVEFPNLPLKPREESLEHHHHHH
modifications: main product lacks 11 C-terminal residues
notes: main product lacks the 11 C-terminal residues
B2: H10A: modified tridegin, XnY mutation of SEQ ID No. 1, expressed in Escherichia coli (protein)
chain: MKLLPCKEWAQGIPNPRCWCGADLECAQDQYCAFIPQCRPRSELIKPMDDIYQRPVEFPNLPLKPREE
B3: M48A: modified tridegin, XnY mutation of SEQ ID No. 1, expressed in Escherichia coli (protein)
chain: MKLLPCKEWHQGIPNPRCWCGADLECAQDQYCAFIPQCRPRSELIKPADDIYQRPVEFPNLPLKPREE
B4: F34A: modified tridegin, XnY mutation of SEQ ID No. 1, expressed in Escherichia coli (protein)
chain: MKLLPCKEWHQGIPNPRCWCGADLECAQDQYCAAIPQCRPRSELIKPMDDIYQRPVEFPNLPLKPREE
B5: D50A, P55L: spontaneously arising double mutant of tridegin SEQ ID No. 1, expressed in Escherichia coli (protein)
chain: MKLLPCKEWHQGIPNPRCWCGADLECAQDQYCAFIPQCRPRSELIKPMDAIYQRLVEFPNLPLKPREE
B6: F58A: modified tridegin, XnY mutation of SEQ ID No. 1, expressed in Escherichia coli (protein)
chain: MKLLPCKEWHQGIPNPRCWCGADLECAQDQYCAFIPQCRPRSELIKPMDDIYQRPVEAPNLPLKPREE
B7: G12A: modified tridegin, XnY mutation of SEQ ID No. 1, expressed in Escherichia coli (protein)
chain: MKLLPCKEWHQAIPNPRCWCGADLECAQDQYCAFIPQCRPRSELIKPMDDIYQRPVEFPNLPLKPREE
B8: I45A: modified tridegin, XnY mutation of SEQ ID No. 1, expressed in Escherichia coli (protein)
chain: MKLLPCKEWHQGIPNPRCWCGADLECAQDQYCAFIPQCRPRSELAKPMDDIYQRPVEFPNLPLKPREE
B9: Y31A: modified tridegin, XnY mutation of SEQ ID No. 1, expressed in Escherichia coli (protein)
chain: MKLLPCKEWHQGIPNPRCWCGADLECAQDQACAFIPQCRPRSELIKPMDDIYQRPVEFPNLPLKPREE
B10: P65A: modified tridegin, XnY mutation of SEQ ID No. 1, expressed in Escherichia coli (protein)
chain: MKLLPCKEWHQGIPNPRCWCGADLECAQDQYCAFIPQCRPRSELIKPMDDIYQRPVEFPNLPLKAREE
B11: D50A: modified tridegin, XnY mutation of SEQ ID No. 1, expressed in Escherichia coli (protein)
chain: MKLLPCKEWHQGIPNPRCWCGADLECAQDQYCAFIPQCRPRSELIKPMDAIYQRPVEFPNLPLKPREE
B12: K02A: modified tridegin, XnY mutation of SEQ ID No. 1, expressed in Escherichia coli (protein)
chain: MALLPCKEWHQGIPNPRCWCGADLECAQDQYCAFIPQCRPRSELIKPMDDIYQRPVEFPNLPLKPREE
B13: N60A: modified tridegin, XnY mutation of SEQ ID No. 1, expressed in Escherichia coli (protein)
chain: MKLLPCKEWHQGIPNPRCWCGADLECAQDQYCAFIPQCRPRSELIKPMDDIYQRPVEFPALPLKPREE
B14: R39A: modified tridegin, XnY mutation of SEQ ID No. 1, expressed in Escherichia coli (protein)
chain: MKLLPCKEWHQGIPNPRCWCGADLECAQDQYCAFIPQCAPRSELIKPMDDIYQRPVEFPNLPLKPREE
B15: K07A: modified tridegin, XnY mutation of SEQ ID No. 1, expressed in Escherichia coli (protein)
chain: MKLLPCAEWHQGIPNPRCWCGADLECAQDQYCAFIPQCRPRSELIKPMDDIYQRPVEFPNLPLKPREE
B16: L24A: modified tridegin, XnY mutation of SEQ ID No. 1, expressed in Escherichia coli (protein)
chain: MKLLPCKEWHQGIPNPRCWCGADAECAQDQYCAFIPQCRPRSELIKPMDDIYQRPVEFPNLPLKPREE
B17: C06A: tridegin modified by replacement of a cysteine residue, expressed in Escherichia coli (protein)
chain: MKLLPAKEWHQGIPNPRCWCGADLECAQDQYCAFIPQCRPRSELIKPMDDIYQRPVEFPNLPLKPREE
B18: C18A: tridegin modified by replacement of a cysteine residue, expressed in Escherichia coli (protein)
chain: MKLLPCKEWHQGIPNPRAWCGADLECAQDQYCAFIPQCRPRSELIKPMDDIYQRPVEFPNLPLKPREE

One experiment has as its target T1, factor XIIIa. The experiment in a line: biochemical. The experiment is classed as biochemical.
Conditions: not given
Here is the method: The assay is based on factor XIII being activated to form factor XIIIa by thrombin which is present in the reagents. Factor XIIIa links a specific peptide substrate to glycine ethyl ester with ammonium ions being released. The latter are determined in an enzyme reaction which proceeds in parallel. The extinction at 340 nm was used to measure the decrease in NADH. For the measurement, peptides were present in 50% acetonitrile in a stock concentration of 5 mM. The NADH and detection reagents which were supplied by the manufacturer were dissolved in 3 ml of water, with the activator reagent subsequently being dissolved in 3 ml of NADH reagent. For use, the activator and detection reagents were mixed in a ratio of 1:1. In order to carry out the measurement in microtiter plate format, 100 μl of sample (inhibitor or control buffer), 25 μl of factor XIII (10 U/ml) and 150 μl of working reagent were mixed. The measurement was carried out continuously for 20 min at 340 nm, and at 37° C., in a microtiter plate photometer. For the evaluation, the differences in the values measured after 16 and 20 min were compared.
The relative inhibitory effect (%) was determined at a final variant concentration of 5.45 μM. The inhibitory effect of the recombinant tridegin polypeptide was normalized to 100% (at 5.45 μM).
The above-described Berichrom® assay was used to determine the relative inhibitory effect (%) at a final concentration of the peptides of 7.27 μM. The inhibitory effect of the recombinant tridegin polypeptide, at a final concentration of 7.27 μM, was normalized to 100%.
The relative inhibitory effect (%) was determined at a final variant concentration of 5.45 μM. The inhibitory effect of the recombinant wild-type tridegin poly-peptide (at 5.45 μM) was normalized to 100%. The oligonucleotides which were used to produce the abovementioned variants are also specified in the table.
B1: the “inhibitory activity compared with wild-type tridegin polypeptide expressed in Escherichia coli” value is on record as “even more effective”.

Staying with this experiment, now noted: Table 2; final variant concentration 5.45 μM; recombinant tridegin polypeptide normalized to 100%.
On to B2, for which the “Relative inhibitory effect (%)” value is 87%.
On the same count and under the same terms, with B3 the figure was 91%; with B4, 96%.
Same read-out and setting: with B5 the figure was 84%.
Turning to B6, the “Relative inhibitory effect (%)” value stood at 60%.
As to B7, the “Relative inhibitory effect (%)” value stood at 97%.
The same measure, in the same setting: with B8 the figure was 115%; with B9, 69%; with B10, 51%.
For B11, the “Relative inhibitory effect (%)” value worked out at 53%.
Same read-out and setting: with B12 the figure was 113%; with B13, 68%; with B14, 49%.
For the molecule B15, the “Relative inhibitory effect (%)” value turned out to be 90%.
On the same count and under the same terms, with B16 the figure was 92%.

Staying with this experiment, now noted: Table 3; final peptide concentration 7.27 μM; recombinant tridegin polypeptide at 7.27 μM normalized to 100%.
Take “Ac-PMDDIYQRPVEFPNLPLKPR-NH2 [SEQ ID No. 25]”: the relative inhibitory effect (% of recombinant tridegin) at 7.27 µM was 42.1%.
On the same count and under the same terms, with “Ac-DDIYQRPVEFPNLPLKPREE-NH2 [SEQ ID No. 26]” the figure was 35.6%; with “Ac-IKPMDDIYQRPVEFPNLPLK-NH2 [SEQ ID No. 24]”, 43.5%.

The experiment is the same for the next values; noted with them: Table 4, Cys variants; final variant concentration 5.45 μM; wild-type tridegin polypeptide normalized to 100%.
As to B17, the “Relative inhibitory effect (%)” value came out at 72%.
B18: the “Relative inhibitory effect (%)” value worked out at 93%.
